Tested on: Escherichia coli TOP10
Experiment: shrunken log2 fold change of peptide-encoding DNA abundance (4.5 h post-induction vs induction); higher = less antimicrobial activity (less host growth inhibition)
Details: time post-induction: 4.5 h; library: site-saturation at positions 5, 18, 19, 20
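Also: peptides expressed intracellularly from a pBAD plasmid library in pooled LB shake-flask culture, induced with 0.3% L-arabinose, DNA abundance read by NGS, three biological replicates, DESeq2 with apeglm shrinkage.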

Sequence: RRIRVRPPRLPRPRPRPQREPRP
- shrunken log2 fold change: -0.0361

Sequence: RRIRMRPPRLPRPRPRPHACPRP
- shrunken log2 fold change: -0.0695

Sequence: RRIRCRPPRLPRPRPRPVLRPRP
- shrunken log2 fold change: 0.183

Sequence: RRIRPRPPRLPRPRPRPVDPPRP
- shrunken log2 fold change: 0.0557

Sequence: RRIRRRPPRLPRPRPRPDPCPRP
- shrunken log2 fold change: -0.00607

Sequence: RRIRARPPRLPRPRPRPWYTPRP
- shrunken log2 fold change: -0.514

Sequence: RRIRARPPRLPRPRPRPQVTPRP
- shrunken log2 fold change: 0.356

Sequence: RRIRPRPPRLPRPRPRPSLSPRP
- shrunken log2 fold change: 0.022

Sequence: RRIRNRPPRLPRPRPRPWAMPRP
- shrunken log2 fold change: -0.175

Sequence: RRIRFRPPRLPRPRPRPCISPRP
- shrunken log2 fold change: -0.068

Sequence: RRIRCRPPRLPRPRPRPFKHPRP
- shrunken log2 fold change: -0.272

Sequence: RRIRPRPPRLPRPRPRPGCLPRP
- shrunken log2 fold change: 0.339

Sequence: RRIRHRPPRLPRPRPRPETDPRP
- shrunken log2 fold change: -0.253

Sequence: RRIRGRPPRLPRPRPRPITFPRP
- shrunken log2 fold change: -0.148

Sequence: RRIRNRPPRLPRPRPRPLFYPRP
- shrunken log2 fold change: -0.586

Sequence: RRIRHRPPRLPRPRPRPRWPPRP
- shrunken log2 fold change: 2.25

Sequence: RRIRMRPPRLPRPRPRPNQQPRP
- shrunken log2 fold change: 0.0339

Sequence: RRIRGRPPRLPRPRPRPNNVPRP
- shrunken log2 fold change: -0.131

Sequence: RRIRWRPPRLPRPRPRPHAPPRP
- shrunken log2 fold change: 0.517

Sequence: RRIRQRPPRLPRPRPRPKTKPRP
- shrunken log2 fold change: -0.254

Sequence: RRIRKRPPRLPRPRPRPAENPRP
- shrunken log2 fold change: 0.0163

Sequence: RRIRLRPPRLPRPRPRPFQLPRP
- shrunken log2 fold change: -0.402

Sequence: RRIRKRPPRLPRPRPRPAWIPRP
- shrunken log2 fold change: 0.0453

Sequence: RRIRTRPPRLPRPRPRPGWGPRP
- shrunken log2 fold change: 0.343

Sequence: RRIRSRPPRLPRPRPRPFTQPRP
- shrunken log2 fold change: -0.403

Sequence: RRIRARPPRLPRPRPRPMAKPRP
- shrunken log2 fold change: 0.216

Sequence: RRIRTRPPRLPRPRPRPCYEPRP
- shrunken log2 fold change: -0.549

Sequence: RRIRLRPPRLPRPRPRPIKCPRP
- shrunken log2 fold change: -0.152

Sequence: RRIRQRPPRLPRPRPRPHHDPRP
- shrunken log2 fold change: -0.000328

Sequence: RRIRVRPPRLPRPRPRPMGPPRP
- shrunken log2 fold change: 0.24

Sequence: RRIRGRPPRLPRPRPRPVYQPRP
- shrunken log2 fold change: 0.0322

Sequence: RRIRHRPPRLPRPRPRPGRGPRP
- shrunken log2 fold change: 0.529

Sequence: RRIRHRPPRLPRPRPRPFDGPRP
- shrunken log2 fold change: -0.258

Sequence: RRIRLRPPRLPRPRPRPTWIPRP
- shrunken log2 fold change: 0.0209

Sequence: RRIRHRPPRLPRPRPRPAMHPRP
- shrunken log2 fold change: 0.0521

Sequence: RRIRWRPPRLPRPRPRPWWYPRP
- shrunken log2 fold change: -0.203

Sequence: RRIRFRPPRLPRPRPRPINPPRP
- shrunken log2 fold change: -1.08

Sequence: RRIRERPPRLPRPRPRPSGFPRP
- shrunken log2 fold change: 0.0785

Sequence: RRIRARPPRLPRPRPRPMKYPRP
- shrunken log2 fold change: -0.157

Sequence: RRIRSRPPRLPRPRPRPINDPRP
- shrunken log2 fold change: -0.113

Sequence: RRIRYRPPRLPRPRPRPGTKPRP
- shrunken log2 fold change: -0.0505

Sequence: RRIRDRPPRLPRPRPRPIYFPRP
- shrunken log2 fold change: -0.839

Sequence: RRIRRRPPRLPRPRPRPQNGPRP
- shrunken log2 fold change: -0.0551

Sequence: RRIRLRPPRLPRPRPRPFVWPRP
- shrunken log2 fold change: 0.118

Sequence: RRIRARPPRLPRPRPRPKMSPRP
- shrunken log2 fold change: 0.126

Sequence: RRIRPRPPRLPRPRPRPTHQPRP
- shrunken log2 fold change: 0.615

Sequence: RRIRIRPPRLPRPRPRPRQDPRP
- shrunken log2 fold change: 0.0231

Sequence: RRIRPRPPRLPRPRPRPAFTPRP
- shrunken log2 fold change: -0.0147

Sequence: RRIRLRPPRLPRPRPRPSKWPRP
- shrunken log2 fold change: -0.348

Sequence: RRIRGRPPRLPRPRPRPQRSPRP
- shrunken log2 fold change: 0.16

Sequence: RRIRSRPPRLPRPRPRPTHNPRP
- shrunken log2 fold change: -0.133

Sequence: RRIRWRPPRLPRPRPRPEFVPRP
- shrunken log2 fold change: 0.423

Sequence: RRIRHRPPRLPRPRPRPFQRPRP
- shrunken log2 fold change: 0.0038

Sequence: RRIRNRPPRLPRPRPRPSHRPRP
- shrunken log2 fold change: 0.0906

Sequence: RRIRKRPPRLPRPRPRPESAPRP
- shrunken log2 fold change: 1.72

Sequence: RRIRARPPRLPRPRPRPGMIPRP
- shrunken log2 fold change: 0.237

Sequence: RRIRMRPPRLPRPRPRPVLWPRP
- shrunken log2 fold change: 0.847

Sequence: RRIRVRPPRLPRPRPRPRAGPRP
- shrunken log2 fold change: 0.488

Sequence: RRIRKRPPRLPRPRPRPTHTPRP
- shrunken log2 fold change: 0.285

Sequence: RRIRQRPPRLPRPRPRPHLHPRP
- shrunken log2 fold change: -0.177

Sequence: RRIRGRPPRLPRPRPRPYIVPRP
- shrunken log2 fold change: 0.0237

Sequence: RRIRSRPPRLPRPRPRPWLCPRP
- shrunken log2 fold change: -0.0753

Sequence: RRIRYRPPRLPRPRPRPLMLPRP
- shrunken log2 fold change: -1.32

Sequence: RRIRKRPPRLPRPRPRPVKRPRP
- shrunken log2 fold change: 0.0121

Sequence: RRIRARPPRLPRPRPRPSCKPRP
- shrunken log2 fold change: -0.291

Sequence: RRIRHRPPRLPRPRPRPNHIPRP
- shrunken log2 fold change: -0.844

Sequence: RRIRFRPPRLPRPRPRPTQIPRP
- shrunken log2 fold change: 0.0911

Sequence: RRIRVRPPRLPRPRPRPRGWPRP
- shrunken log2 fold change: 0.666

Sequence: RRIRCRPPRLPRPRPRPMPQPRP
- shrunken log2 fold change: 0.202

Sequence: RRIRARPPRLPRPRPRPREVPRP
- shrunken log2 fold change: 0.738

Sequence: RRIRFRPPRLPRPRPRPNCSPRP
- shrunken log2 fold change: -0.498

Sequence: RRIRMRPPRLPRPRPRPSKLPRP
- shrunken log2 fold change: -0.0679

Sequence: RRIRMRPPRLPRPRPRPLWRPRP
- shrunken log2 fold change: 0.704

Sequence: RRIRHRPPRLPRPRPRPYRYPRP
- shrunken log2 fold change: -0.177

Sequence: RRIRYRPPRLPRPRPRPATPPRP
- shrunken log2 fold change: 0.158

Sequence: RRIRKRPPRLPRPRPRPYDRPRP
- shrunken log2 fold change: 0.192

Sequence: RRIRGRPPRLPRPRPRPWVFPRP
- shrunken log2 fold change: 0.758

Sequence: RRIRCRPPRLPRPRPRPRDPPRP
- shrunken log2 fold change: 0.864

Sequence: RRIRPRPPRLPRPRPRPAPSPRP
- shrunken log2 fold change: 0.51

Sequence: RRIRARPPRLPRPRPRPIEFPRP
- shrunken log2 fold change: -0.0488

Sequence: RRIRLRPPRLPRPRPRPCAEPRP
- shrunken log2 fold change: 0.395

Sequence: RRIRGRPPRLPRPRPRPHNAPRP
- shrunken log2 fold change: 0.0947

Sequence: RRIRFRPPRLPRPRPRPLSYPRP
- shrunken log2 fold change: -0.0166

Sequence: RRIRERPPRLPRPRPRPYSNPRP
- shrunken log2 fold change: -0.905

Sequence: RRIRARPPRLPRPRPRPTPDPRP
- shrunken log2 fold change: 0.848

Sequence: RRIRFRPPRLPRPRPRPADLPRP
- shrunken log2 fold change: -0.294

Sequence: RRIRARPPRLPRPRPRPYLSPRP
- shrunken log2 fold change: -0.451

Sequence: RRIRIRPPRLPRPRPRPMASPRP
- shrunken log2 fold change: -0.00783

Sequence: RRIRRRPPRLPRPRPRPFNHPRP
- shrunken log2 fold change: -0.275

Sequence: RRIRQRPPRLPRPRPRPTGWPRP
- shrunken log2 fold change: 0.19

Sequence: RRIRHRPPRLPRPRPRPNIDPRP
- shrunken log2 fold change: -0.153

Sequence: RRIRDRPPRLPRPRPRPDQHPRP
- shrunken log2 fold change: 0.132

Sequence: RRIRFRPPRLPRPRPRPFMKPRP
- shrunken log2 fold change: 1.71

Sequence: RRIRWRPPRLPRPRPRPRTEPRP
- shrunken log2 fold change: 0.225

Sequence: RRIRFRPPRLPRPRPRPFLIPRP
- shrunken log2 fold change: -0.304

Sequence: RRIRWRPPRLPRPRPRPKYKPRP
- shrunken log2 fold change: -0.558

Sequence: RRIRIRPPRLPRPRPRPHPPPRP
- shrunken log2 fold change: -0.0108

Sequence: RRIRPRPPRLPRPRPRPAYAPRP
- shrunken log2 fold change: 0.16

Sequence: RRIRIRPPRLPRPRPRPQNSPRP
- shrunken log2 fold change: -0.595

Sequence: RRIRPRPPRLPRPRPRPDTEPRP
- shrunken log2 fold change: -0.48

Sequence: RRIRVRPPRLPRPRPRPIHLPRP
- shrunken log2 fold change: -0.197

Sequence: RRIRNRPPRLPRPRPRPEHMPRP
- shrunken log2 fold change: -0.0791

Sequence: RRIRCRPPRLPRPRPRPGYEPRP
- shrunken log2 fold change: -0.00917

Sequence: RRIRQRPPRLPRPRPRPEECPRP
- shrunken log2 fold change: -0.0135

Sequence: RRIRFRPPRLPRPRPRPQYKPRP
- shrunken log2 fold change: -0.755

Sequence: RRIRKRPPRLPRPRPRPYIQPRP
- shrunken log2 fold change: -0.319

Sequence: RRIRLRPPRLPRPRPRPQKKPRP
- shrunken log2 fold change: -0.176

Sequence: RRIRDRPPRLPRPRPRPSAEPRP
- shrunken log2 fold change: 0.162

Sequence: RRIRFRPPRLPRPRPRPFCCPRP
- shrunken log2 fold change: -0.225

Source: the supplement of paper PMC9112550, “Optimization of the antimicrobial peptide Bac7 by deep mutational scanning” (BMC Biology, 2022)
